Numbering of substitutions follows the chain as printed.
T1: human Nectin-4 (Homo sapiens, UniProt Q96NY8)
T1 construct: His tag; purchased Acro Biosystems NE4-H52H3
T1 sequence (Q96NY8 32-510): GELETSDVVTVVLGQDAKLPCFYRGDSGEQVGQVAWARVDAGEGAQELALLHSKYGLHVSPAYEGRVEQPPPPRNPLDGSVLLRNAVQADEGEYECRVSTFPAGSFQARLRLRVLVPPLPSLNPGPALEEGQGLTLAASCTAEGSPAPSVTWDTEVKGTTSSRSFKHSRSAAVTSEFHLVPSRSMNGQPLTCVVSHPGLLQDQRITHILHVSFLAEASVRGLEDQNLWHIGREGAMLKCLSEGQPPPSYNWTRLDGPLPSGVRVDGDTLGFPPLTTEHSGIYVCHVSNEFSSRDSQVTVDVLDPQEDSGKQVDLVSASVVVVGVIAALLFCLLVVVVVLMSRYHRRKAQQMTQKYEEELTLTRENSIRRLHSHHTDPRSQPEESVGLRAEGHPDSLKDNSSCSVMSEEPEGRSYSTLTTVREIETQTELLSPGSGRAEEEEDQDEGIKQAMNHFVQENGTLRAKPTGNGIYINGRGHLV

B1: Ab3 (conjugate)
heavy: EVQLVESGGGLVKPGGSLRLSCAASGFNLNHYNMNWVRQAPGKGLEWVSSVSSGGGFRYYADSVRGRFTISRDNAKNSLYLQMNSLRAEDTAVYYCARGAVFHDAFDIWGQGTLVTVSSASTKGPSVFPLAPSSKSTSGGTAALGCLVKDYFPEPVTVSWNSGALTSGVHTFPAVLQSSGLYSLSSVVTVPSSSLGTQTYICNVNHKPSNTKVDKRVEPKSCDKTHTCPPCPAPEAAGGPSVFLFPPKPKDTLMISRTPEVTCVVVSVSHEDPEVKFNWYVDGVEVHNAKTKPREEQYNSTYRVVSVLTVLHQDWLNGKEYKCKVSNKALPAPIEKTISKAKGQPREPQVYTLPPSREEMTKNQVSLTCLVKGFYPSDIAVEWESNGQPENNYKTTPPVLDSDGSFFLYSKLTVDKSRWQQGNVFSCSVMHEALHNHYTQKSLSLSPGK
light: DIQLTQSPSFLSASVGDRVTITCRASQDISSYLAWYQQKPGKAPKLLIYVASTLQSGVPSRFSGSGSGTEFTLTISSLQPEDFATYYCQQINSYPFTFGQGTKVEIKRTVAAPSVFIFPPSDEQLKSGTASVVCLLNNFYPREAKVQWKVDNALQSGNSQESVTEQDSKDSTYSLSSTLTLSKADYEKHKVYACEVTHQGLSSPVTKSFNRGEC
B2: Ab5 (conjugate)
heavy: QVQLVQSGAEVKKPGASVKVSCKASGYTFTSYYVHWVRQAPGQGLEWMGIINPSIISTSYAQKFQARVTMTRDTSTSTVYMELSSLRSEDTAVYYCARGLNFDAFDIWGQGTLVTVSSASTKGPSVFPLAPSSKSTSGGTAALGCLVKDYFPEPVTVSWNSGALTSGVHTFPAVLQSSGLYSLSSVVTVPSSSLGTQTYICNVNHKPSNTKVDKRVEPKSCDKTHTCPPCPAPEAAGGPSVFLFPPKPKDTLMISRTPEVTCVVVSVSHEDPEVKFNWYVDGVEVHNAKTKPREEQYNSTYRVVSVLTVLHQDWLNGKEYKCKVSNKALPAPIEKTISKAKGQPREPQVYTLPPSREEMTKNQVSLTCLVKGFYPSDIAVEWESNGQPENNYKTTPPVLDSDGSFFLYSKLTVDKSRWQQGNVFSCSVMHEALHNHYTQKSLSLSPGK
light: B1 light with D28G, V50A, I91L, S93N
B3: Ab4 (conjugate)
heavy: QVQLQESGPGLVKPSETLSLTCTVSGGSISGYYWSWIRQPPGKGLEWIGYIYYSGSTNYNPSLKSRVTISVDTSKNQFSLKLSSVTAADTAVYYCARLGIFFDAFDIWGQGTLVTVSSASTKGPSVFPLAPSSKSTSGGTAALGCLVKDYFPEPVTVSWNSGALTSGVHTFPAVLQSSGLYSLSSVVTVPSSSLGTQTYICNVNHKPSNTKVDKRVEPKSCDKTHTCPPCPAPEAAGGPSVFLFPPKPKDTLMISRTPEVTCVVVSVSHEDPEVKFNWYVDGVEVHNAKTKPREEQYNSTYRVVSVLTVLHQDWLNGKEYKCKVSNKALPAPIEKTISKAKGQPREPQVYTLPPSREEMTKNQVSLTCLVKGFYPSDIAVEWESNGQPENNYKTTPPVLDSDGSFFLYSKLTVDKSRWQQGNVFSCSVMHEALHNHYTQKSLSLSPGK
light: B1 light with D28G, V50A, I91F, F96W
B4: Ab6 (conjugate)
heavy: QVQLVQSGAEVKKPGASVKVSCKASGYTFTGYYMHWVRQAPGQGLEWMGIINPSGGSTTYAQKFQGRVTMTRDTSTSTVYMELSSLRSEDTAVYYCARGRLGTYFDYWGQGTLVTVSSASTKGPSVFPLAPSSKSTSGGTAALGCLVKDYFPEPVTVSWNSGALTSGVHTFPAVLQSSGLYSLSSVVTVPSSSLGTQTYICNVNHKPSNTKVDKRVEPKSCDKTHTCPPCPAPEAAGGPSVFLFPPKPKDTLMISRTPEVTCVVVSVSHEDPEVKFNWYVDGVEVHNAKTKPREEQYNSTYRVVSVLTVLHQDWLNGKEYKCKVSNKALPAPIEKTISKAKGQPREPQVYTLPPSREEMTKNQVSLTCLVKGFYPSDIAVEWESNGQPENNYKTTPPVLDSDGSFFLYSKLTVDKSRWQQGNVFSCSVMHEALHNHYTQKSLSLSPGK
light: SYVLTQPPSVSVAPGQTARITCGGNNIGSKSVHWYQQKPGQAPVLVVYDDSDRPSGIPERFSGSNSGNTATLTISRVEAGDEADYYCQVWDRSSDQVVFGGGTKLTVLGQPKAAPSVTLFPPSSEELQANKATLVCLISDFYPGAVTVAWKADSSPVKAGVETTTPSKQSNNKYAASSYLSLTPEQWKSHRSYSCQVTHEGSTVEKTVAPTECS

What was measured:
[1] = tested on: rat Nectin-4; test: Surface plasmon resonance (Biacore 8K+) binding of nectin-4 ADCs to rat Nectin-4; conditions: rat Nectin-4, 37° C., ADC Formula XI DAR 8, n=1
Method: (§1) An anti-human Fc sensor surface was prepared by amine-coupling of goat anti-human IgG Fc (Southern Biotech Cat. No. 2014-01, Birmingham, AL) to a Biacore Series S CM4 (Cytiva Cat. No. BR-100534) sensor surface at 25° C. For immobilization, a running buffer of 10 mM HEPES, 150 mM NaCl, 0.05% Tween-20, pH 7.4 was used. Flow cells 1 & 2 of all 8 channels were activated with a 1:1 (v/v) mixture of 400 mM 1-Ethyl-3-(3-dimethylaminopropyl) carbodiimide hydrochloride (EDC) and […] N-Hydroxysuccinimide (NHS) at a flow rate of 10 uL/min for 7 minutes. Then the anti-human IgG Fc capture reagent was coupled to the sensor surface (diluted to 50 μg/mL in 10 mM Acetate pH 4.5 buffer) by injecting it in all flow cells and channels at a flow rate of 10 uL/min for 7 minutes. Remaining active groups were blocked by injecting 100 mM ethylenediamine (in 200 mM Borate buffer, pH 8.5) in all flow cells and channels at a flow rate of 10 uL/min for 7 minutes. All channels and flow cells were then preconditioned using three consecutive 1-minute injections of 75 mM phosphoric acid at 10 uL/min.
(§2) In each analysis cycle, a different ADC was captured on flow cell 2 of each channel by injecting it at 5 μg/mL and 10 uL/min. After capture, the same analyte was injected on flow cells 1 and 2 in all 8 channels for 2 minutes at 30 uL/n and dissociation was monitored for 10 minutes. After dissociation, all surfaces were regenerated with three 1-minute injections of 5 mM phosphoric acid at 10 uL/min. ADC capture and analyte cycles were repeated to obtain analyte binding of each ADC at concentrations of 0, 2.5, 7.4, 22, 67, 200 and 600 nM nectin-4.
(§3) Sensorgram data were fit globally with the default 1:1 binding model in Biacore Insight Evaluation Software v3.0.12.15655.

[2] = tested on: cyno Nectin-4; test: Surface plasmon resonance (Biacore 8K+) binding of nectin-4 ADCs to cyno Nectin-4; conditions: cyno Nectin-4, 37° C., ADC Formula XI DAR 8, n=1
Method: as §1, §2, §3

[3] = biological target: T1, human Nectin-4; test: Surface plasmon resonance (Biacore 8K+) binding of nectin-4 ADCs to human Nectin-4; conditions: human Nectin-4, 37° C., ADC Formula XI DAR 8; n=3 mean ± SD, n=2 replicate values
Method: as §1, §2, §3

[4] = tested on: T24 mScarlet clone 5 Nectin-4 negative cells; test: Bystander killing of T24-mScarlet clone 5 cells co-cultured with T24-human nectin4 clone108 (imaging); format: cell-based; conditions: T24-mScarlet clone5 : T24-human nectin4 clone108 9:1, 5 days, ADC Formula XI DAR 8; read-out: IC50 of bystander effect
Method: T24 cell line was engineered to express mScarlet and clonally selected to test in bystander assay. T24-mScarlet clone5 and T24-human nectin4 clone108 were mixed and seeded at a total of 1000 cells/well/100 ul with a ratio of 9:1 in culture medium (McCoy's 5A+1× GlutaMax+10% Heat Inactivated Fetal Bovine Serum+400 μg/ml G418) in flat clear bottom 96-well plates. T24 mScarlet clone 5 cells were negative for nectin-4 expression. Plates were incubated at 37° C. with 5% CO2 overnight. Next day, ADCs were added at final working concentration from 50 nM, 1:4 serially diluted in culture medium. Plates were covered with Breathe-Easy® sealing membrane, placed in BioSpa and scanned in Cytation5 every day for 5 days.
Images of T24-mScarlet cells were captured and analyzed by Cytation5 with Gen5 Image Prime 3.11. Percentage of T24-mScarlet cell killing was calculated by decreased Integrated Intensity (area×mean intensity), normalized to zero hour and no treatment. Data was graphed and analyzed using GraphPad Prism version 9.5.1. IC50 was determined via log(inhibitor) vs. response-variable slope (four parameters) curve fitting.

Molecule | ka [1] | kd [1] | ka [2] | kd [2] | ka [3] | kd [3] | IC50 [4] | KD ([1]; KD = kd/ka) | KD ([2]; KD = kd/ka)
B1 | 171000 M⁻¹ s⁻¹ | 0.000903 s⁻¹ | 432000 M⁻¹ s⁻¹ | 0.000426 s⁻¹ | (4.24 ± 0.76) × 10^5 1/Ms | (4.37 ± 1.56) × 10^−4 1/s | 0.047 nM | – | –
B2 | 636000 M⁻¹ s⁻¹ | 0.0199 s⁻¹ | 1.06e+06 M⁻¹ s⁻¹ | 0.0033 s⁻¹ | (8.78 ± 1.07) × 10^5 1/Ms | (3.46 ± 0.48) × 10^−3 1/s | 0.0766 nM | – | –
B3 | – | – | 380000 M⁻¹ s⁻¹ | – | (3.59 ± 0.80) × 10^5 1/Ms | (7.32 ± 1.19) × 10^−2 1/s | 0.0798 nM | weak binding | –
B4 | 925000 M⁻¹ s⁻¹ | 0.105 s⁻¹ | – | – | (1.78 ± 0.41) × 10^6 1/Ms | (1.63 ± 0.25) × 10^−1 1/s | 0.0587 nM | – | heterogeneous kinetics*
